Measured values reported in doi:10.1101/2023.03.17.533217 (2023).

B1: Aurora A kinase (AurA), residues 122-403, dephosphorylated (domain or fragment)
chain: ESKKRQWALEDFEIGRPLGKGKFGNVYLAREKQSKFILALKVLFKAQLEKAGVEHQLRREVEIQSHLRHPNILRLYGYFHDATRVYLILEYAPLGTVYRELQKLSKFDEQRTATYITELANALSYCHSKRVIHRDIKPENLLLGSAGELKIADFGWSVHAPSSRRTTLCGTLDYLPPEMIEGRMHDEKVDLWSLGVLCYEFLVGKPPFEANTYQETYKRISRVEFTFPDFVTEGARDLISRLLKHNPSQRPMLREVLEHPWITANSSKPSNCQNKESASKQS

Legend:
[1] = target: Mb3; experiment: ITC
[2] = target: Mb3; experiment: ITC; danusertib
[3] = target: B1; experiment: ITC
[4] = target: B1; experiment: ITC; 50 µM danusertib
[5] = target: B1; experiment: ITC; 150 µM danusertib
[6] = target: B1; experiment: ITC; danusertib

Binder | Kd [1] | Kd [2] | Kd [3] | Kd [4] | Kd [5] | Kd [6]
B1 | 180 nM | 69 nM | – | – | – | –
activating monobody Mb1 (designed binder) GSVSSVPTKLEVVAATPTSLLISWDAQTYQMYDYVSYYRITYGETGGNSPVQEFTVPGYYSTATISGLKPGVDYTITVYAEGYYSSYSPISINYRT | – | – | 952 nM | 18 µM | 17.7 µM | –
inhibiting monobody Mb2 (designed binder) GSVSSVPTKLEVVAATPTSLLISWDAPAVTVVHYVITYGETGGNSPVQEFTVPGSKSTATISGLKPGVDYTITVYAIDFYWGSYSPISINYRT | – | – | 1500 nM | – | – | 889 nM
